{"source": "paper PMC4423205", "assay_in_all_cases": "SPR", "details_in_all_cases": "all L-ribonucleotides (L-RNA, mirror image); SPR (Biacore 2000), chemokine immobilized on CM4/CM5, physiological running buffer, 37 C; complex formation in 20 mM HEPES pH 7.4, 100 mM NaCl, 5 mM KCl, 1 mM …", "key": {"[1]": {"molecular_target": "CCL2 R18A R41A (Homo sapiens) (UniProt P13500)", "sequence (P13500 24-99 R41A)": "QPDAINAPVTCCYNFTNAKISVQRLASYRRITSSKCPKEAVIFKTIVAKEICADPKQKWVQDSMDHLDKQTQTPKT"}, "[2]": {"molecular_target": "CCL2 K19A K42A (Homo sapiens) (UniProt P13500)", "sequence (P13500 24-99 K42A)": "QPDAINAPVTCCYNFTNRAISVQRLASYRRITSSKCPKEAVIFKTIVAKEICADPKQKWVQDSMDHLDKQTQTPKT"}, "[3]": {"molecular_target": "CCL2 S63F S86F (Homo sapiens) (UniProt P13500)", "sequence (P13500 24-99 S86F)": "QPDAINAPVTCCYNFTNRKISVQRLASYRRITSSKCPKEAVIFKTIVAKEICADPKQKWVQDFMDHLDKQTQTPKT"}, "[4]": {"molecular_target": "CCL2 (MCP-1), wild type (Homo sapiens) (UniProt P13500)", "sequence (P13500 24-99)": "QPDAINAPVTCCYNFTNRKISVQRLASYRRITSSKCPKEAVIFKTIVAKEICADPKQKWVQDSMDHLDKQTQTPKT"}, "[5]": {"molecular_target": "CCL11 (eotaxin) (Homo sapiens) (UniProt P51671)", "sequence (P51671 24-97)": "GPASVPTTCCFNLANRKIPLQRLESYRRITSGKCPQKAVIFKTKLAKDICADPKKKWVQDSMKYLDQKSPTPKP"}, "[6]": {"molecular_target": "CCL13 (MCP-4) (Homo sapiens) (UniProt Q99616)", "sequence (Q99616 24-98)": "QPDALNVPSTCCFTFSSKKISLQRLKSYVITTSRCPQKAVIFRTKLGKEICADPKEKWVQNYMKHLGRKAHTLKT"}, "[7]": {"molecular_target": "CCL2 S21P S44P (Homo sapiens) (UniProt P13500)", "sequence (P13500 24-99 S44P)": "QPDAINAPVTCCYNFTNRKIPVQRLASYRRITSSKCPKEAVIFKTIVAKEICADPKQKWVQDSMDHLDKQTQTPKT"}, "[8]": {"molecular_target": "CCL2 S63Y S86Y (Homo sapiens) (UniProt P13500)", "sequence (P13500 24-99 S86Y)": "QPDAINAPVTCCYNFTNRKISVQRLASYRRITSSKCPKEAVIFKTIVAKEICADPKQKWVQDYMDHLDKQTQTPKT"}, "[9]": {"molecular_target": "T1, CCL8 (MCP-2) (Homo sapiens) (UniProt P80075)", "T1 sequence": "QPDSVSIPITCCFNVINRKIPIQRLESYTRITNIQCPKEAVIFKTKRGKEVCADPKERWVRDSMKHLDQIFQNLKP"}, "[10]": {"molecular_target": "CCL2 R24A R47A (Homo sapiens) (UniProt P13500)", "sequence (P13500 24-99 R47A)": "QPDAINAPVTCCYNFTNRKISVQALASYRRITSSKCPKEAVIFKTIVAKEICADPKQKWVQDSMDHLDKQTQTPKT"}}}
{"sequence": "GCACGUCCCUCACCGGUGCAAGUGAAGCCGUGGCUCUGCG [NOX-E36 L-aptamer (Spiegelmer, without PEG)]", "values": [{"measurement": "Kd", "setting": "[1]", "result": 14.1, "unit": "nM"}, {"measurement": "Kd", "setting": "[2]", "result": 4130, "unit": "nM"}, {"measurement": "Kd", "setting": "[3]", "result": 54.4, "unit": "nM"}, {"measurement": "Kd", "setting": "[4]", "result": 1.32, "unit": "nM"}, {"measurement": "Kd", "setting": "[5]", "result": 3.06, "unit": "nM"}, {"measurement": "Kd", "setting": "[6]", "result": 22, "unit": "nM"}, {"measurement": "Kd", "setting": "[7]", "result": 7.94, "unit": "nM"}, {"measurement": "Kd", "setting": "[8]", "result": 74.4, "unit": "nM"}, {"measurement": "Kd", "setting": "[9]", "result": 3.35, "unit": "nM"}, {"measurement": "Kd", "setting": "[10]", "result": 8280, "unit": "nM"}]}
